A short description of the data set: label from the status in PepcDB records.
Turning to “MKRPGAIPTVQIDNERVKVTEWRFPPGGETGWHRHSMDYVVVPMTTGPLLLETPEGSVTSQLTRGVSYTRPEGVEHNVINPSDTEFVFVEIEIKAA”, the protein production entry is reported as “not failed”. As to “RQVTDSDETEELIHLLLDNYAEGKIVKLLFMSENATQPVISQVAKENDVMLNVLHGNLTQTQNGAYGTLYVQVLGTEEAIEASLTQLRQLKVETEVLER”, the protein production entry is listed as “not failed”. As to “MGGKMRLLPIRKISRQSKRLALFLTFCAGYVDAYTFIVRGNTLVAGQTGNVVFLSVELIKNNVSDVRDKVLTLLAFMMGVFLLTIYKEKLRIVKKP”, the protein production result is reported as “failed”. With “MHGKDPFSDFREFINTMESRVQELGKAYGVEHLAGPQGFAVRYLFENQDKEIFIKDIEKKLSISKSVASNLVKRMEKNGFVELVTSDKDKRYKYVHLTDLGKKKAQDVGHFREAIHGQLLDGISKEDAETAFRVFHQIRKNLEKNKELEHHHHHH” the entry was “not failed”. For “RLAHVSAASRELARALEPDAVMAVLAGILRERLGFYRVTVALVREGALVGHLTRRGEDLYWTEGRSRIRLPVATSPDPMAQAVRERRTRIVPREALPPHLAEGVGASVAYVPVLVEEEALGCVAVDHGPGGPPVTEEEVEYVELLAGVAGVALRNAQLYRERTALSLALAAERKRLS”, the protein production result is given as “failed”. With “MLALPTTFAKSPIDNEASIEETTPKWSVNSPQGNFTTADIDVRSGTWMNVDLNPDGKTIIFDLLGDIYTMPASGGEATPLMTDIAWQMQPRFSPDGKYIAFTSDEDGGDNLWIMKADGSEAKAVTTETFRLLNSPAWSPDGNYIVGRKHYTGTRSLGAGEVWMYHKSGGNGVMLTKRPNEQKDLGEPAFSHDGKYVYFSQDATPGKSFHYSKDSEKGIYKIKRLELETGEIKVVVSGKGGAIRPTLSPDGKYLAFISRDDFQSNLYLYNLKNGEQSKVYDGLDRDMQETWAIHGVYPTMAWTPDSEGLVFWSGGKINKLSLDSKKAKVIDFHVKTTKKIQTAVRFPQDLDQKSFDTKMLRDVKVSPNGKLAVYESMGHLYTKSLPKGKPKRLTKQKSQFELNPSFSRDGKKIVYVSWDDKNLGQVRVVSSRGGKGKTITREPGKYVEPSFSPDGKAVVYRKVTGGFITDPTWGLNPGVYAVSVKGGKAKLVTEEGVQPHFGARNDRIYVTRDGETPHISRIDIDGQHDTKLYQGKFASEYRVSPDGNYLAFAERFKVFVTPFVERGDVIDIGPKAENLPVEQLSMRAGEGINWNGKSNELYWSLGADLYQASIKGLFDITAKTTDENDDGSEPETSASTVVNDINVINLSYKQKVDIPSGHVAFVGGKVITMEGEQVIDNGVVLVEGNKIKAVGTKGQVNIPSDATIIDITGKTVMPGLIDAHAHGPQGSNEIIPQQNWKNYAGLALGVTTIHDPSNDTTEFFAASEMQKAGKIVAARLFSTGTILYGATIPGYTSHVDSLDDAKFHVERLKAAGAFSVKSYNQPRRNQRQQFIQAARELEMMVVPEGGSLLQHNLTMVVDGHTTLEHSISTAKIYADIKQLWSQSDMAYTPTMGVAYGGISGENYWYDTTNVWEHPRLSQYVPSEFLDPRSMRRPKAPLHHYNHFNVAKVAKEMQDLGVVVNAGGHGQREGLAMHWEMWMMAQGGMSPLQAIRTATISPAKSLGLDKDLGSLTVGKLADMIVIDGDITQDIRLSDKVTHTMINGRLYNADTMNEIGNYDNKREKFYFENK” the entry was “failed”; with “LQTALARLGQWGILSRDLYGFFDQATELIRTALGVDYCGLWELLPNRSALVLCAGDGWDKALVGNYTIDATNRSYAGYTIQHNGDRRMEDYEPIVELDLRISTKFRASPLLHNLGIVSGINLMVAGPRTAFGVLGVYSLTARKFTEEEIEFLKVASHILAAAIDRQEYEERLLLLQQAIDASS”, “failed”; with “MAAGKTHDKITVIMTPFIASFFLFINMIFLEDLGSSLAFTILGVSIYMFGGYMFSGDLDIKSREFRRWGYLKFIWIPYQKLFEHRSVFTHGFILGPIIRILYVSIIPITISSLLYSFSIINISTPEMLKLVFNFILKNKILFGNMALALFLGSGLHTITDMIYSYFKRKFSYKKRKSSKKYSRSKRPSRRAA”, “failed”. With “TPAVVERADADSQYEILVGGQRAGLTAYRDLGAQRVFFHTEIDEAFAGQGLASQLVQQALVDVRASGMRIVPVCPYVAKFLKRHDEFADITDPVTPEVLRW” the entry was “not failed”; with “MEVDKKDEREAESSEQVVNPWEVSAKDGGKIDYDKLIDKFGCQRLDESLIDRVQRLTSRQPHVFLRRSVFFAHRDFNEILDAYERGDKFYLYTGRGPSSEALHLGHLIPFMFTKYLQEAFKVPLVIQLTDDEKSIWKNLSVEESQRLARENAKDIIACGFDVTKTFIFSDFDYVGGAFYKNMVKVGKCVTLNKAMGIFGFSGEDPIAKLSFPPVQAVPSFPSSFPHLFPGKDNLRCLIPCAIDQDPYFRMTRDVAPRLGYSKPALIESTFFPALQGENGKMSASDPNSAIYVTDSAKDIKNKINRYAFSGGQDSIEKHRELGANLEVDIPVKYLSFFLEDDSELEHIKKEYGEGRMLTGEVKKRLTEVLTEIVERHRRARAAVTDEMVDAFMAVRPLPSMFE”, “not failed”.

Take “MTSFQSTLDDDEDGIAEELAASQREISVAEFFEKNKHMLGFDSGARGLVTAVKEAVDNALDATEEAGILPDIYVEISEGRDYYTLIVEDNGPGITNAQIPKIFGKLLYGSRFHAREQSRGQQGIGISAAVLYSQLTSGKPVRIESRTQDSETANVYELIIDTDTNEPEISAETEVSAAKSDLRGTHGTRIEMALDANMRARGQLHDYIKHTAVVNPHARIELQEPGGELKSERAEEASLPAETDEILPHPHGVELGTLIKMLAETDSHSVSGFLQSEFTRVGSKTATGIIDAFRDEHFGREMRWRPPADADLEATVADAVANKDATHTAVFARTVADAVRDADSIAPAELGALVADAAADAQDDTGTSFGETVQANVVAAVRDALTSDRVADVLGPVDEATTVQKDDATVRGLAERIAAKFESGGDTDRVTRDTLDEYVFRAAENTAEYADATIGETARENVADALWARMATVPDDPPNTSALADDRDAASDLLAAMASVNVMAPPTSCLSPIEADQLEAGLRTEFDADFYAAATRDADVHGGDPFIVEAGIAYGGDIDSEGGVQLMRFANRVPLVYQRGACATTDVLGDIGWRNYNLSQPGGSGLPQGPAVIMVHVASTNVPFTSESKDAIANVPEIEAEIELAVREAARELKSFLQKRQSMRKRQQKQDVIMDILPTMAEKVGELTGRGGVDVSDSLARIMNNVLVERARSDDGQTVTLRVENHGTGSVDVDVTDIVSAEPDGVGDDASVVAMDDEYFVKWTPAVAGDDAAELTYSVDADADCELSVSGVADARLTVSEADT”: the protein production result is given as “failed”.

Regarding “MTSPENPDLPDADDAYVDSGPGTQPASLEDLDMDSASTMRPMATQAVYRPEFDDTDGTSRGTVVTEAYDQVTMATRALSPMRRLGGGLVEIPRVPERDPLTALMTNPVVAESKRFCWNCGKPVGRSTPDGRALSEGWCPHCGSPYSFLPQLSPGDIVADQYEIKGCIAHGGLGWVYLAFDKNVNDRPVVLKGLVHSGDAEAQAIAMAERQFLAEVTHPGIVKIYNFVEHEDKHGNPVGYIVMEYVGGTSLKQARGAKLPVAEAIGYMLEILPALGYLHSIGLAYNDLKPENIMITEEQLKLIDLGAVSRLNSYGYLYGTPGYQAPEIVRTGPTVATDIYTVGRTLAALTLSLRTRRGRYVDGLPSDDPVLETYDSYHRLLRRAIDPDPRRRFTSAEEMSSQLLGVLREVVATDTGVPRPGLSTVFSPSRSTFGVDLLVAHTDVYVDGQVHSEKLTAQEIVRALPVPLVDRTDVGAPMLVASVLSEPVHTLDQLRAARHGALDTEGIDLNESVELPLMEVRALLDLGDVAKATRKLEDLAARVGWRWRLVWFKAVSEMLSADYDSATKHFTEVLDTLPGELAPKLALAATAELAGTADELKFYKTVWSTDNGVISAGFGLARAQSVAGERDMAVQTLDEVPPTSRHFTTARLTSAVTLLSGRSTSEITEQHIRDAARRVEALPDSEPRVLQIRALVLGTALDWLADNTASSNHILGFPFTEHGLKLGVEASLRALARIAPTQSHRYALVDLANSVRPMSTF”, the protein production entry was “failed”. As to “MSINSNSVFNNSGRVSAAGIASVVGLAVLSAVAVTGGAVKVLVISWVAFAAMALGAWLGARADETNPYRLVWGYGLASGAMVTSAAMFLVPQAMGLGGQAGAARIGGVGIAAGLVTGYGTHTIGHRLTHIETSFDMTTIAIAAHALSAGLVIGLVYASMPDLGILLGLAIVSHKGPAGYAAARRLGRSDKSATALLLPAAGVGLTAIPSALLPVPESALLNAVIFGFAAGIFLHVAMDFLPNCEAGSEIDEVCELHDHSHDLLDELRTHAVGSTVVGAAVIVLAWVAI”, the protein production entry is reported as “failed”.

These data come from a protein production outcome set (Wang et al. 2014).
